Test results as given in paper PMC6769588.

Biological target: lectin-like oxidized LDL receptor 1 (LOX1) on bEnd.3 cells (mouse (endogenous in bEnd.3)) (UniProt Q9EQ09)
UniProt Q9EQ09, sequence (Q9EQ09 whole entry): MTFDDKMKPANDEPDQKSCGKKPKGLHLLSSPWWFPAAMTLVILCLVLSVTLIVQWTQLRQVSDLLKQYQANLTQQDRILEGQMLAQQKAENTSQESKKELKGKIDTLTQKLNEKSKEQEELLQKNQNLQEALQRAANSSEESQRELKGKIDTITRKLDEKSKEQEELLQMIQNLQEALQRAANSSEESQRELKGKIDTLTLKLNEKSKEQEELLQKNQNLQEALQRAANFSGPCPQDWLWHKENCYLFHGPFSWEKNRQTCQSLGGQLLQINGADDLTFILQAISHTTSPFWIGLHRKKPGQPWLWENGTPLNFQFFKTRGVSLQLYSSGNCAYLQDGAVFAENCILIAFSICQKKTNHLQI

Acrolein-modified apolipoprotein E3 (acro-apoE3) (from UniProt P02649 19-317) (natural protein)
decrease in uptake of DiI-labeled acro-apoE3/rHDL (3 µg/mL) by bEnd.3 cells pre-treated with anti-LOX1 antibody: 80 % decrease
